# Reference: patent US20090298765A1 (Takeda / Millennium, published 2009)
# Non-standard residues stand in square brackets, D forms with d. Primed or numbered codes have the meaning given here. No end group written: not given here. *: point of attachment. GuAmb = 4-guanidinomethylbenzoyl, N=C(N)NCc1ccc(C(=O)*)cc1; Arg(Et)′ = arginine carrying an ethyl group; Phe(4-F) = N[C@@H](Cc1ccc(F)cc1)C(=O)O; Arg(Me) = CNC(=N)NCCC[C@H](N)C(=O)O; d3Pal = N[C@H](Cc1cccnc1)C(=O)O; Cha = N[C@@H](CC1CCCCC1)C(=O)O; azaGly = NNC(=O)O
# Experiments:
# [1] = molecular target: T1, human OT7T175 (metastin receptor) (human, UniProt Q969F8 1-398); experiment: competition with Cy-5 metastin (40-54) on hOT7T175-CHO cells, FMAT
# T1 construct: expressed on CHO cells; also called hOT7T175; hOT7T175-expressed CHO cells
# T1 sequence (Q969F8 whole entry L364H): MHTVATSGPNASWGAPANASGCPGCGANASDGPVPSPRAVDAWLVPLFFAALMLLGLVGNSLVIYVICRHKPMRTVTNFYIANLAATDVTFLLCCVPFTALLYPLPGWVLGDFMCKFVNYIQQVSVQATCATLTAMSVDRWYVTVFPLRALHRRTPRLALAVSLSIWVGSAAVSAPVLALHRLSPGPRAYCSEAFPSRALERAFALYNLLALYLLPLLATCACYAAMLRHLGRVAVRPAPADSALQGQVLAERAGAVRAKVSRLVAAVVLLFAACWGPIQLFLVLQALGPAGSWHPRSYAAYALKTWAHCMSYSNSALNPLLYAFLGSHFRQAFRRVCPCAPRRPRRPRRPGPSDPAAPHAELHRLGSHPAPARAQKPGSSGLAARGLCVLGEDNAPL
# Procedure: hOT7T175-Expressed CHO cells were cultured in MEM-α medium (nucleic acid-free) containing 10% dialyzed serum. The medium was removed and the adhered cells were washed with PBS. Then, PBS containing 5 mM EDTA was added and the cells were scraped from a flask with a cell scraper.
# To each well of a 96-Well Black Clear Bottom Microplate (Applied Biosystems, Inc.), 10 μL of assay buffer containing 1% dimethylsulfoxide was added to examine total binding, 10 μL of 10 μM non-labeled peptide (having the same amino acid sequence as that of labeled one) solution diluted with assay buffer to examine non-specific binding, and 10 μL of a test compound diluted with assay buffer to examine a binding inhibition activity of the test compound, and furthermore, 90 μL each of the cell suspension was dispensed to each well. […] Specific binding is calculated as non-specific binding subtracted from total binding. The binding inhibition activity of a test compound is shown by a ratio of the value obtained by subtracting a measured value in presence of a test compound from the total binding to the specific binding.
# [2] = molecular target: T1, human OT7T175 (metastin receptor); experiment: cell-based or functional assay
Binder,IC50 [1] [nM],Ca ion level-increasing activity (FLIPR) [2]
"[d3Pal]FNSF[azaGly]L[Arg(Me)]F-NH2 (N-terminus assumed; SMILES CNC(=N)NCCC[C@H](NC(=O)[C@H](CC(C)C)NC(=O)NNC(=O)[C@H](Cc1ccccc1)NC(=O)[C@H](CO)NC(=O)[C@H](CC(N)=O)NC(=O)[C@H](Cc1ccccc1)NC(=O)[C@H](N)Cc1cccnc1)C(=O)N[C@@H](Cc1ccccc1)C(N)=O, also called Compound No. 256) [des(1)-[D-Pya(3)2,Phe3,AzaGly7,Arg(Me)9]MS10]",22,1 x Metastin (1-54)
"Ac-ANSF[azaGly]L[Arg(Me)]F-NH2 (SMILES CNC(=N)NCCC[C@H](NC(=O)[C@H](CC(C)C)NC(=O)NNC(=O)[C@H](Cc1ccccc1)NC(=O)[C@H](CO)NC(=O)[C@H](CC(N)=O)NC(=O)[C@H](C)NC(C)=O)C(=O)N[C@@H](Cc1ccccc1)C(N)=O) [des(1-2)-Acetyl-[Ala3,AzaGly7,Arg(Me)9]MS10]",,1 x Metastin (1-54)
"GuAmb-F[azaGly]L[Arg(Me)]W-NH2 [des(1-5)-GuAmb-[AzaGly7,Arg(Me)9,Trp10]MS10]",,5 x Metastin (1-54)
"[dA]NWNSF[azaGly]L[Arg(Me)]F-NH2 (N-terminus assumed; SMILES CNC(=N)NCCC[C@H](NC(=O)[C@H](CC(C)C)NC(=O)NNC(=O)[C@H](Cc1ccccc1)NC(=O)[C@H](CO)NC(=O)[C@H](CC(N)=O)NC(=O)[C@H](Cc1c[nH]c2ccccc12)NC(=O)[C@H](CC(N)=O)NC(=O)[C@@H](C)N)C(=O)N[C@@H](Cc1ccccc1)C(N)=O, also called Compound No. 259) [[D-Ala1,AzaGly7,Arg(Me)9]MS10]",250,1 x Metastin (1-54)
"[dY][dN]TNSF[azaGly]L[Arg(Me)][Phe(4-F)]-NH2 (N-terminus assumed; SMILES CNC(=N)NCCC[C@H](NC(=O)[C@H](CC(C)C)NC(=O)NNC(=O)[C@H](Cc1ccccc1)NC(=O)[C@H](CO)NC(=O)[C@H](CC(N)=O)NC(=O)[C@@H](NC(=O)[C@@H](CC(N)=O)NC(=O)[C@H](N)Cc1ccc(O)cc1)[C@@H](C)O)C(=O)N[C@@H](Cc1ccc(F)cc1)C(N)=O, also called Compound No. 316) [[D-Tyr1,D-Asn2,Thr3,AzaGly7,Arg(Me)9,Phe(4F)10]MS10]",26,1 x Metastin (1-54)
"[dY][dN]FNSF[azaGly]L[Arg(Me)]F-NH2 (also called Compound No. 257) [[D-Tyr1,D-Asn2,Phe3,AzaGly7,Arg(Me)9]MS10]",40,3 x Metastin (1-54)
"[dY][dN]TNSF[azaGly]L[Arg(Me)]F-NH2 (also called Compound No. 284) [[D-Tyr1,D-Asn2,Thr3,AzaGly7,Arg(Me)9]MS10]",34,1 x Metastin (1-54)
"[dY][dS]WNSF[azaGly]L[Arg(Me)]F-NH2 (N-terminus assumed; SMILES CNC(=N)NCCC[C@H](NC(=O)[C@H](CC(C)C)NC(=O)NNC(=O)[C@H](Cc1ccccc1)NC(=O)[C@H](CO)NC(=O)[C@H](CC(N)=O)NC(=O)[C@H](Cc1c[nH]c2ccccc12)NC(=O)[C@@H](CO)NC(=O)[C@H](N)Cc1ccc(O)cc1)C(=O)N[C@@H](Cc1ccccc1)C(N)=O, also called Compound No. 287) [[D-Tyr1,D-Ser2,AzaGly7,Arg(Me)9]MS10]",2.3,2 x Metastin (1-54)
"[dY][dH]WNSF[azaGly]L[Arg(Me)]F-NH2 (N-terminus assumed; SMILES CNC(=N)NCCC[C@H](NC(=O)[C@H](CC(C)C)NC(=O)NNC(=O)[C@H](Cc1ccccc1)NC(=O)[C@H](CO)NC(=O)[C@H](CC(N)=O)NC(=O)[C@H](Cc1c[nH]c2ccccc12)NC(=O)[C@@H](Cc1c[nH]cn1)NC(=O)[C@H](N)Cc1ccc(O)cc1)C(=O)N[C@@H](Cc1ccccc1)C(N)=O, also called Compound No. 288) [[D-Tyr1,D-His2,AzaGly7,Arg(Me)9]MS10]",0.072,1 x Metastin (1-54)
YNWNSFGL[Arg(Et)′]F-NH2 (also called Compound No. 220) [[Arg(Et)9]MS10],330,
"[dN][Cha]NSF[azaGly]L[Arg(Me)]F-NH2 [des(1)-[D-Asn2,Cha3,AzaGly7,Arg(Me)9]MS10]",,1 x Metastin (1-54)
